The values below come from patent US20030125523A1 (VEGENICS, published 2003).

For assay [1], the target named is NP-1 expressed on PAE-NP-1 cells (UniProt O14786). The assay is described as follows: competition of 125I-hVEGF165 (1 ng/ml) binding to PAE-NP-1 cells by 20 µg/ml GST fusion.
Assay [2] concerns the target T1, soluble Neuropilin-1-Ig fusion protein (extracellular domain of mouse NP-1 fused to the human IgG Fc-part) (mouse; human, UniProt P97333 22-856).
T1 construct: extracellular domain; Made in transfected 293T cells and captured on protein A sepharose; also called NP-1-Ig; soluble NP-1-Ig; not shown: human IgG Fc-part encoded by the pIgplus vector (Ingenius)
T1 sequence (looked up): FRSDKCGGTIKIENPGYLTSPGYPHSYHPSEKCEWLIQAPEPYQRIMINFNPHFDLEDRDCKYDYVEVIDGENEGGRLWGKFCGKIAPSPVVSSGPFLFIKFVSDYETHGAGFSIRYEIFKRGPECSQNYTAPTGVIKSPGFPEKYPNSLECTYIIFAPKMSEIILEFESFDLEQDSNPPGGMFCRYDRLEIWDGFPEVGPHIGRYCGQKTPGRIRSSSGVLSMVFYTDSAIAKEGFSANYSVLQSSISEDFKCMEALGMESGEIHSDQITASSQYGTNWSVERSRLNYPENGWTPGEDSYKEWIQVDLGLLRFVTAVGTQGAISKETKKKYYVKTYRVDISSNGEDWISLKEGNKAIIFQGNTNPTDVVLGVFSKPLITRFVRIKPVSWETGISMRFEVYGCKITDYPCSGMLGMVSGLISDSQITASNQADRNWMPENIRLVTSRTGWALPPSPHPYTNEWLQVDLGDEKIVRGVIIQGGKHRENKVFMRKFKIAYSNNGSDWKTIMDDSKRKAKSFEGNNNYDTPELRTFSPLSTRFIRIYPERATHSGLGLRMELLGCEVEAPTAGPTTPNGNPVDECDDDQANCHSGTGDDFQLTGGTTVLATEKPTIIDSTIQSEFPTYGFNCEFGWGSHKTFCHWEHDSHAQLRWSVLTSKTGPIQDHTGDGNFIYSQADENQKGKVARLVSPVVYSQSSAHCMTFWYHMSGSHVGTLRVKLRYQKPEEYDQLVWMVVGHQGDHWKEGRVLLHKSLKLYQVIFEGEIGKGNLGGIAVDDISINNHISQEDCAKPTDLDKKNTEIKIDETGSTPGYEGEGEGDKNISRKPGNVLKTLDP
The assay can be described thus: precipitation of 35S-labelled growth factor from conditioned medium with NP-1-Ig on protein A sepharose, SDS-PAGE.

Assay [3] deals with T1, soluble Neuropilin-1-Ig fusion protein …. The assay can be described thus: precipitation of 35S-labelled growth factor with NP-1-Ig on protein A sepharose, SDS-PAGE (FIG. 7).
Assay [4] shares this target. The assay can be described thus: precipitation of 35S-labelled growth factor with NP-1-Ig on protein A sepharose, SDS-PAGE (FIG. 6).
Assay [5] has the same target. The assay can be described thus: precipitation of 35S-labelled growth factor from conditioned medium with NP-1-Ig on protein A sepharose, SDS-PAGE (FIG. 3). Here is the method:
293-T or 293EBNA cells were similarly transfected with plasmids encoding hVEGF₁₆₅, mVEGF-B₁₆₇, mVEGF-B₁₈₆, hVEGF-C, hVEGF-D, PlGF-1 or PlGF-2, and the transfected cells were metabolically labeled 24 hours post transfection with 100 μCi/ml Pro-mix TML-³⁵S (Amersham) for 6 to 7 hours. 10 μg/ml heparin was added to the labeling medium to facilitate the release of the heparin sulphate-binding growth factors from the cell surface and pericellular matrix. Metabolically labeled media, with the exception of the medium used for VEGF transfection, were immunodepleted of endogenous VEGF by immunoprecipitating with VEGF antibody for two hours. Similar amounts of media containing the metabolically labeled growth factors were then used for immunoprecipitation or for receptor binding analysis. Growth factors were incubated for 3 hours at room temperature with receptor-Igs in binding buffer (phosphate buffered saline (PBS), 0.5% BSA, 0.2% Tween 20). The sepharose beads were then washed once with ice cold binding buffer and three times with PBS and analyzed by 15% SDS-PAGE.
Immunoprecipitations were carried out using specific antibodies against VEGF₁₆₅, VEGF-B₁₆₇, VEGF-B₁₈₆, VEGF-C, VEGF-D and protein A sepharose. […] In contrast, no significant binding was detected between NP-1-Ig and hVEGF-D or PlGF-1. […]

NP-1 expressed on PAE-NP-1 cells, sequence (O14786 22-923 limits assumed): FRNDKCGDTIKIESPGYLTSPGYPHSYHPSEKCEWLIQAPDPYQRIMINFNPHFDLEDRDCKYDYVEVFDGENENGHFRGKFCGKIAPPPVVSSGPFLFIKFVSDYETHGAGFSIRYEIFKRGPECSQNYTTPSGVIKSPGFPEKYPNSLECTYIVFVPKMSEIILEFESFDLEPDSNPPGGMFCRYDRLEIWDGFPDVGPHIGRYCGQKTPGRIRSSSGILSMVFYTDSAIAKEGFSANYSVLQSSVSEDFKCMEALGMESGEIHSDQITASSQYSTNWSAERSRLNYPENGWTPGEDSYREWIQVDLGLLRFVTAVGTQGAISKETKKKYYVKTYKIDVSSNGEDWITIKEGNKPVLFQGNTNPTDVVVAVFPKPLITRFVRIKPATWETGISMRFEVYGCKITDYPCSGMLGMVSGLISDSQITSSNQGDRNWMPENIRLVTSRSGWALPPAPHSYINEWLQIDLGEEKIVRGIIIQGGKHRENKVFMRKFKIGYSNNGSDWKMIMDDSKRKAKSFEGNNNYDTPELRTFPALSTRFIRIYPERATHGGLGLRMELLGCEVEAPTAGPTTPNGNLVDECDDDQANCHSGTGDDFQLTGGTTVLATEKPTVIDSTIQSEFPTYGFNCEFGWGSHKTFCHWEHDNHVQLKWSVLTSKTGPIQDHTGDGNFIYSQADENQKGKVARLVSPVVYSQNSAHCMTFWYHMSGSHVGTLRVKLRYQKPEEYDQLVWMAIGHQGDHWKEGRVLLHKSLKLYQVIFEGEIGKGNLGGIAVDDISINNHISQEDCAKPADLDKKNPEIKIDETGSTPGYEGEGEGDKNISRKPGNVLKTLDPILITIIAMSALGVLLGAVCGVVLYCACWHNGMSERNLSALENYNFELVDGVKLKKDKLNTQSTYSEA

In the case of “GST-VEGF-B167 exon 6B fusion protein (GST fused to amino acids 117-161 of mVEGF-B167) (from UniProt P49766 117-161)”, the percent competition in assay [1] came to 50%.

B1: mouse VEGF-B167 (ligand, UniProt P49766-2 22-188, looked up)
chain: PVSQFDGPSHQKKVVPWIDVYARATCQPREVVVPLSMELMGNVVKQLVPSCVTVQRCGGCCPDDGLECVPTGQHQVRMQILMIQYPSSQLGEMSLEEHSQCECRPKKKESAVKPDSPRILCPPCTQRRQRPDPRTCRCRCRRRRFLHCQGRGLELNPDTCRCRKPRK
notes: 35S metabolically labelled, from conditioned medium of transfected cells; also called mVEGF-B167
On to B1, for which, in assay [2], the binding result was “binds”.

B2: human VEGF-C (full length) (ligand, UniProt P49767 32-419, looked up)
chain: FESGLDLSDAEPDAGEATAYASKDLEEQLRSVSSVDELMTVLYPEYWKMYKCQLRKGGWQHNREQANLNSRTEETIKFAAAHYNTEILKSIDNEWRKTQCMPREVCIDVGKEFGVATNTFFKPPCVSVYRCGGCCNSEGLQCMNTSTSYLSKTLFEITVPLSQGPKPVTISFANHTSCRCMSKLDVYRQVHSIIRRSLPATLPQCQAANKTCPTNYMWNNHICRCLAQEDFMFSSDAGDDSTDGFHDICGPNKELDEETCQCVCRAGLRPASCGPHKELDRNSCQCVCKNKLFPSQCGANREFDENTCQCVCKRTCPRNQPLNPGKCACECTESPQKCLLKGKKFHHQTCSCYRRPCTNRQKACEPGFSYSEEVCRCVPSYWKRPQMS
notes: 35S labelled, from conditioned medium of transfected cells; also called hVEGF-C; full length VEGF-C
For the molecule B2, the binding result in assay [3] is given as “binds”.

B3: mVEGF-BkEx1-5 (ligand, mouse, UniProt P49766 22-136, looked up)
chain: PVSQFDGPSHQKKVVPWIDVYARATCQPREVVVPLSMELMGNVVKQLVPSCVTVQRCGGCCPDDGLECVPTGQHQVRMQILMIQYPSSQLGEMSLEEHSQCECRPKKKESAVKPD
notes: domain: exons 1-5; also called murine VEGF-BkEx1-5; construct containing exons 1-5 of murine VEGF-B
For B3, the binding result in assay [4] was “no binding”.

B4: human VEGF165 (ligand, UniProt P15692-4 27-191, looked up)
chain: APMAEGGGQNHHEVVKFMDVYQRSYCHPIETLVDIFQEYPDEIEYIFKPSCVPLMRCGGCCNDEGLECVPTEESNITMQIMRIKPHQGQHIGEMSFLQHNKCECRPKKDRARQENPCGPCSERRKHLFVQDPQTCKCSCKNTDSRCKARQLELNERTCRCDKPRR
notes: also called hVEGF165; rhVEGF165
With B4, in assay [2], the binding result is on record as “binds”.

B5: PlGF-1 (ligand, UniProt P49763-2 19-149, looked up)
chain: LPAVPPQQWALSAGNGSSEVEVVPFQEVWGRSYCRALERLVDVVSEYPSEVEHMFSPSCVSLLRCTGCCGDENLHCVPVETANVTMQLLKIRSGDRPSYVELTFSQHVRCECRPLREKMKPERCGDAVPRR
notes: 35S labelled, from conditioned medium of transfected cells; also called placenta growth factor isoform 1
Consider B5, for which, in assay [5], the binding result is given as “no binding”.
